Results from patent US20120225824A1.

Biological target: MIS type II receptor (MISRII) (human) (UniProt Q16671)
Test: cell-based or functional assay

Sequence of UniProt Q16671 (Q16671 18-573): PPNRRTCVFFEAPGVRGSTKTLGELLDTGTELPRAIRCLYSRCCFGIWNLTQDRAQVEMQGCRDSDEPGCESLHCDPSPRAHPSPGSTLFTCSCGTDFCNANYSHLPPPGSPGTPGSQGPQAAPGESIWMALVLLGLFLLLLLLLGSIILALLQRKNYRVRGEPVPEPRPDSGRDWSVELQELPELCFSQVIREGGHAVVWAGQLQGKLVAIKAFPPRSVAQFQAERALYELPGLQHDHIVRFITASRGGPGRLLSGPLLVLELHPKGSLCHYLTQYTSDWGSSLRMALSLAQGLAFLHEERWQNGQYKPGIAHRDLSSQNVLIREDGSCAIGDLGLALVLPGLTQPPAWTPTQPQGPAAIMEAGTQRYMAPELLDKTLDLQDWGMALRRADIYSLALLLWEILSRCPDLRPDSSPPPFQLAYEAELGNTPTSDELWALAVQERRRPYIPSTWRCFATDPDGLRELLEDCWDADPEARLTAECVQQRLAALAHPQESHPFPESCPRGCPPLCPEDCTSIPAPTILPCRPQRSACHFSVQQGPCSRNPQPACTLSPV

Substance | decrease in cell proliferation (cultured endometrial cells transiently transfected with an MIS protein expression construct) | decrease in viable cells (cultured endometrial cells, rhMIS 100 ng/mL, 72 hours)
MIS over-expressed from an MIS protein expression construct (ligand) | 8% | 
rhMIS (R&D Systems, Minneapolis, Minn.) (from UniProt P03971 452-560) (ligand) |  | 14%
